Source: patent US20020141999A1

Molecular target: HuCD7-TR (human CD7 containing an internal deletion of the 36 amino acid tandem repeat) (human) (UniProt P09564)
Assay: HuK12-Fc on transfected COS-1 cells, 125I anti-human Fc, phosphorimager

Sequence of HuCD7-TR (human CD7 containing an internal deletion of the 36 amino acid tandem repeat) (human) (P09564 other isoform, or with tags, fused parts or gaps limits assumed): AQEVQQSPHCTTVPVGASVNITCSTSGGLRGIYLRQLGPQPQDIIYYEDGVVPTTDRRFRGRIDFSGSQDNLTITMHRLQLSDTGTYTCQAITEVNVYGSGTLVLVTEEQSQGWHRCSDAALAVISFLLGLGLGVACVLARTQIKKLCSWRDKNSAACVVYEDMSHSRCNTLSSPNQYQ

fold less relative binding than to full length HuCD7: 10 fold
B1: human K12-Fc fusion protein (extracellular domain of human K12 fused to the Fc portion of human IgG1) (Fc fusion, not shown: a dimerising Fc or GST)
chain: QNEGWDSPICTEGVVSVSWGENTVMSCNISNAFSHVNIKLRAHGQESAIFNEVAPGYFSRDGWQLQVQGGVAQLVIKGARDSHAGLYMWHLVGHQRNNRQVTLEVSGAEPQSAPDTG
